Measured values: patent US5807729A, “Metalloprotease having increased activity” (Novo Nordisk A/S, priority 1995, dated 1998)
Read-outs that look alike come from different tables or passages of the source.

What was measured:
[1] = target: pro-trypsin-like Fusarium oxysporum protease (Fusarium oxysporum) (UniProt P35049)
FTC-labeled casein [2] = target: FTC-labeled casein
succinylated casein [3] = target: succinylated casein
[4] = system: Bacillus stearothermophilus thermolysin; assay: Inhibitor analysis of B.s. thermolysin; type: biochemical; conditions: for type of inhibition, B.s. Thermolysin: kinetic analysis; for Ki: read-out: Inhibition Constant (Ki), B.s. Thermolysin
Experimental: (§1) Other metalloprotease inhibitors are utilized to further differentiate the p45 metalloprotease from the Bacillus thermolysins. Inhibition constants for 1,10-phenanthroline, phosphoramidon, and CdCl2 are determined to be 130 uM, 1 uM, and 67 uM against the p45 Metalloprotease (Table 3). Inhibition constants for 1,10-phenanthroline, phosphoramidon, and CdCl2 are 85 uM, 26 uM, and 2 uM against the Bacillus stearothermophilus thermolysin. […] It is of interest to note that phophoramidon is an effective inhibitor of many bacterial metallo-endopeptidases but few of mammalian origin. Also, it is interesting that CdCl2 is found to be such an effective inhibitor of metalloproteases. No evidence of CdCl2 inhibition of metalloproteases has been found in the literature.

p45 Metalloprotease = p45 Metalloprotease (Fusarium oxysporum, UniProt M1UZ70); assay: Inhibitor analysis of the p45 metalloprotease; type: biochemical; set-up: precursor 632 aa (18 signal, 226 pro); native or A. oryzae-expressed with same N-terminus; conditions: for type of inhibition, p45 Maturase: kinetic analysis
Experimental: as §1

[5] = system: Fusarium oxysporum metalloprotease; assay: Inhibition of Fusarium metalloprotease with 1,10-phenanthroline / EDTA and reactivation with Zn2+; type: biochemical
Experimental: (§2) Metalloprotease activity is measured as released trypsin activity from pro-trypsin-like Fusarium oxysporum protease deposited at the Deutsche Sammlung von Mikroorganismen, Gottingen, Germany under the number DSM 2672, after a 30-60 min pre-incubation at 25° C. in 0.1M Tris, 2 mM CaCl2, pH 7 (at lower pH, 100 mM borate, 10 mM DMG, 2 mM CaCl2 is used).
(§3) Metalloproteases contain a catalytic zinc metal center which participates in the hydrolysis of the peptide backbone. The active zinc center differentiates these proteases from calpains whose activities are dependent upon the presence of calcium. Confirmation of a protease as a metallo-protease is loss of proteolytic activity accomplished by removal of the zinc center with 1,10-phenanthroline (1 mM) followed by titration with Zn^2+ (0.1-100 μM) to restore full activity.
(§4) However, when combined the metalloprotease cleaves recombinant pro-trypsin-like Fusarium oxysporum protease disclosed, supra to yield the active tryptic protease. Metalloprotease activity is halted upon the addition of 1 mM 1,10-phenanthroline (Table 1).

succinylated casein [6] = target: succinylated casein; remark: listed apart in the source
succinylated casein [7] = assay: Casein hydrolysis, succinylated casein assay (QuantiCleave, BCA, 600 nm); type: biochemical; conditions: for maximum absorbance, casein hydrolysis: pH 6.5, room temperature, 40 minutes, FIG. 8
Experimental: 400 ul of casein solution (Pierce) is added to small test tubes along with 100 ul of protease. The tubes are vortexed and incubated at room temperature for 40 minutes. The incubation (and assay) buffer is 0.1 M borate, 2 mM CaCl2, and 10 mM dimethylglutarate, pH 6.5. At the end of the incubation, 60 microliters of trichloroacetic acid (100% w/v) is added, and the tubes are vortexed and centrifuged for 1 minute at 5000×g. 20 microliters of the resulting supernatant is placed into a microtiter plate well with 200 microliters of the BCA working reagent (Pierce). The plates are then vortexed and incubated another 30 minutes, then read at 600 nm using a Biomek 1000 microtiter plate reader.
400 microliters of casein solution (Pierce) are added to small test tubes along with 100 microliters of protease in buffer "A" (0.1M borate, 2 mM CaCl2 and 10 mM dimethylglutaric acid). At the end of the incubation, 60 microliters of trichloroacetic acid (100% w/v) is added, and the tubes are vortexed and centrifuged for 1 minute at 5000×g. 20 microliters of the resulting supernatant is placed into a microtiter plate well with 200 microliters of the BCA working reagent (Pierce). The plates are then vortexed and incubated another 30 minutes, then read at 600 nm using a Biomek 1000 microtiter plate reader.

FTC-labeled casein [8] = assay: Thermal stability profile, FTC-casein hydrolysis; type: biochemical; conditions: 15 minutes at various temperatures, Universal buffer pH 7; FIG. 9
Experimental: Purified p45 metalloprotease or B.t. thermolysin (Boehringer Mannheim) (50 microliters, 0.1 mg/ml) are incubated at various temperatures for 15-minutes in Universal buffer, pH 7. Ten microliters of sample are then added to 30 microliters of Universal pH buffer (pH 7) and 20 microliters of FTC-labeled casein and are incubated at 37° C. for 1 hour. 150 microliters of 5% TCA is added to acidify and precipitate casein (1 hour at room temperature). […] Samples are then analyzed on the fluorimeter (slit width=2.5 nm; excitation freq.=490 nm; emission freq.=525 nm; integration time=2 sec).

[9] = system: pro-trypsin-like F. oxysporum protease; assay: Processing of pro-trypsin-like F. oxysporum protease to active trypsin-like protease
Experimental: Activatable pro-trypsin-like F. oxysporum protease is determined in microtiter wells as released trypsin-like F. oxysporum protease (tryptic) activity from pro-trypsin-like F. oxysporum protease after a 40 minute pre-incubation at room temperature with purified Fusarium oxysporum metalloprotease (approximately 6 ug).
Processed pro-trypsin-like F. oxysporum protease(i.e. mature trypsin-like F. oxysporum protease) activity is determined directly from microtiter plates containing the pre-incubated metalloprotease/pro-trypsin-like F. oxysporum protease cocktail (total volume=100 microliters), and 100 microliters of substrate (87 mg/ml.L-BAPNA stock in DMSO diluted 50-fold in sample buffer). Again, active trypsin-like F. oxysporum protease is determined as an increase in absorbance at 405 nm immediately after L-BAPNA addition.
Purified pro-trypsin-like F. oxysporum protease is added to fresh A. oryzae fermentation broths containing the recombinant p45 metalloprotease (approximately 90 mg/L) and incubated for either 1, 2, or 3 hours at room temperature. Levels of pro-trypsin-like F. oxysporum protease in the incubation mixtures range from 100 ug/ml to 13 mg/ml.
Purified pro-trypsin-like F. oxysporum protease (100 ug/ml) is added to various amounts of either purified recombinant p45 metalloprotease or purified B.s. metalloprotease.

[10] = system: succinyl-Ala-Ala-Ala-p-nitroanilide; assay: Hydrolysis of succinyl-Ala-Ala-Ala-p-nitroanilide; type: biochemical
From the text: Both p45 metalloprotease and a neutral zinc endopeptidase secreted by Flavobacterium meningosepticum poorly hydrolyze the substrate N-[3-(2--furyl)acryloyl]-Leu-Gly-NH2. However, the neutral zinc endopeptidase secreted by Flavobacterium meningosepticum will hydrolyze the vertebrate elastase substrate succinyl-Ala-Ala-Ala-p-nitroanilide, a substrate that thermolysin cannot hydrolyze (Table 2). Therefore, succinyl-Ala-Ala-Ala-p-nitroanilide hydrolysis by the p45 metalloprotease is investigated. […] This effect further differentiates the p45 metalloprotease from other existing metalloproteases.

[11] = system: FAGLA: N-(3-[2-Furyl]Acryloyl)-Gly-Leu amide; assay: FAGLA hydrolysis (345 nm); type: biochemical
Experimental: The thermolytic substrate FAGLA: N-(3-[2-Furyl]Acryloyl)-Gly-Leu amide is used to further characterize the p45 metalloprotease and B.t. thermolysin. Reaction mixtures contain 100 microliters of N-(3-[2-Furyl]Acryloyl)-Gly-Leu amide (FAGLA) (2 mM) and 100 microliters of various concentrations of either thermolysin (Boehringer Mannheim) or purified p45 metalloprotease. Thermolytic activity is determined as a decrease in absorbance at 345 nm on the recording spectrometer for one minute(Shimadzu, UV160U). The linear range of the assay for thermolysin is 10-500 ug/ml thermolysin in the assay mix.

[12] = system: Ac-Pro-Leu-Gly[2-mercapto-4-methyl-pentanoyl]-Leu-Gly-OEt; assay: Hydrolysis of the thermolytic merc-peptide substrate (Ellman's reagent, 405 nm); type: biochemical
Experimental: The thermolytic substrate Ac-Pro-Leu-Gly[2-mercapto-4-methyl-pentanoyl]-Leu-Gly-OEt (i.e. the merc-peptide) is also used to further characterize the p45 metalloprotease and B.t. thermolysin.
Reaction mixtures contain 100 microliters of Ac-Pro-Leu-Gly[2-mercapto-4-methyl-pentanoyl]-Leu-Gly-OEt (1 mM, and 1 mM Ellman's reagent) and 100 microliters of either B.t. thermolysin or purified p45 metalloprotease (0-3 ug/ml) in sample buffer.

FTC-labeled casein [13] = assay: Protease analysis using FTC-labeled casein; type: biochemical
Experimental: Samples are incubated at room temperature for 30 minutes.

[14] = system: pro-trypsin-like Fusarium oxysporum protease; assay: Proteolytic enzyme assay: tryptic activity released from pro-trypsin-like protease, L-BAPNA, 405 nm; type: biochemical
Experimental: as §2, §3, §4

Molecule: p45 metalloprotease from Fusarium oxysporum (enzyme)
- Specific Activity (released trypsin activity, L-BAPNA) (g trypsin/min*mg) [1]: 1.2
- Specific Activity (fluorescence released from FTC-casein) (FTC-labeled casein [2]): 170 FU/min·mg
- maximum absorbance, succinylated casein hydrolysis (succinylated casein [3]): 0.3 O.D

Molecule: [Cl][Cd][Cl] [CdCl2]
- type of inhibition, B.s. Thermolysin [4]: Competitive
- Ki [4]: 2 µM
- type of inhibition, p45 Maturase (p45 Metalloprotease): Noncompetitive
- Ki (p45 Metalloprotease; read-out: Inhibition Constant (Ki), p45 Maturase): 67 µM

Molecule: neutral metalloprotease from Bacillus stearothermophilus (enzyme)
- Specific Activity (released trypsin activity, L-BAPNA) (g trypsin/min*mg) [1]: 0.018
- Specific Activity (fluorescence released from FTC-casein) (FTC-labeled casein [2]): 220 FU/min·mg
- maximum absorbance, succinylated casein hydrolysis (succinylated casein [3]): 0.47 O.D.

Molecule: CC(C)C[C@H](NP(=O)(O)O[C@@H]1O[C@@H](C)[C@H](O)[C@@H](O)[C@H]1O)C(=O)N[C@@H](Cc1c[nH]c2ccccc12)C(=O)O [phosphoramidon]
- type of inhibition, B.s. Thermolysin [4]: Noncompetitive
- Ki [4]: 26 µM
- Ki (p45 Metalloprotease): 1 µM
- type of inhibition, p45 Maturase (p45 Metalloprotease): Noncompetitive

Molecule: [Zn+2] [Zn^2+]
- reactivation of the 1,10-phenanthroline-inhibited Fusarium metalloprotease ([5]; addition of 1 mM Zn2+): full reactivation

Molecule: dispase (enzyme)
- maximum absorbance, succinylated casein hydrolysis (succinylated casein [6]): 0.47 absorbance

Molecule: O=C(O)CN(CCN(CC(=O)O)CC(=O)O)CC(=O)O [EDTA]
- metalloprotease activity upon addition of the inhibitor ([5]; inhibitor 1 mM): Analogous results

B1: Thermolysin from Bacillus thermoproteolyticus (enzyme)
chain: ITGTSTVGVGRGVLGDQKNINTTYSTYYYLQDNTRGNGIFTYDAKYRTTLPGSLWADADNQFFASYDAPAVDAHYYAGVTYDYYKNVHNRLSYDGNNAAIRSSVHYSQGYNNAFWNGSQMVYGDGDGQTFIPLSGGIDVVAHELTHAVTDYTAGLIYQNESGAINEAISDIFGTLVEFYANKNPDWEIGEDVYTPGISGDSLRSMSDPAKYGDPDHYSKRYTGTQDNGGVHINSGIINKAAYLISQGGTHYGVSVVGIGRDKLGKIFYRALTQYLTPTSNFSQLRAAAVQSATDLYGSTSQEVASVKQAFDAVGVK
- maximum absorbance, succinylated casein hydrolysis (succinylated casein [6]): 0.47 absorbance

B2: thermolysin: Thermolysin from Bacillus thermoproteolyticus (B.t.), purchased from Boehringer Mannheim (protein)
chain: B1 chain
- maximum absorbance, casein hydrolysis (succinylated casein [7]): ~0.47 O.D. units
- optimum temperature for hydrolysis of FTC-casein (FTC-labeled casein [8]): 80 °C

B3: B.s. Thermolysin: thermolysin / neutral metalloprotease from Bacillus stearothermophilus (B.s.) (protein, UniProt P43133 236-551, looked up)
Thermolysin: B1 chain
- Specific Activity, substrate Succinylated Casein (maximal level) (succinylated casein [7]): 0.47 O.D.
- maximum absorbance, casein hydrolysis (succinylated casein [7]): ~0.47 O.D. units
- Specific Activity, substrate pro-trypsin [9]: .018 g trypsin/min*mg
- Specific Activity, substrate Ala-Ala-Ala-pNA [10]: < 2 pmol pNA/min*mg
- hydrolysis of succinyl-Ala-Ala-Ala-p-nitroanilide ([10]; substrate 4.4 mM in 0.1M Tris, pH 8): neither, the p45 metalloprotease nor the B.s. thermolysin would hydrolyze
- Specific Activity, substrate FAGLA [11]: 227 -AU/sec*mg
- Specific Activity, substrate merc-peptide [12]: 2.9 AU/min*mg
- Specific Activity, substrate FTC-Labelled Casein (FTC-labeled casein [13]): 220 FU/min*mg

B4: Pro-trypsin-like F. oxysporum protease: recombinant proenzyme form of the trypsin-like F. oxysporum protease (protein)
chain: APQEIPNIVGGTSASAGDFPFIVSISRNGGPWCGGSLLNANTVLTAAHCVSGYAQSGFQIRAGSLSRTSGGITSSLSSVRVHPSYSGNNNDLAILKLSTSIPSGGNIGYARLAASGSDPVAGSSATVAGWGATSEGGSSTPVNLLKVTVPIVSRATCRAQYGTSAITNQMFCAGVSSGGKDSCQGDSGGPIVDSSNTLIGAVSWGNGCARPNYSGVYASVGALRSFIDTYA
- tryptic activity of the sample alone ([14]; sample alone): do not contain any tryptic activity
- Tryptic Activity ([14]; without 1,10-phenanthroline, without Zn2+): 1.26 Δ Abs/min × 10^-4
